Data on 31 molecules can be found in publication PMC3206016, “Putting into Practice Domain-Linear Motif Interaction Predictions for Exploration of Protein Networks” (PLoS ONE, 2011).

Ends that are not written are not given here. * marks the point of attachment. Biotin = O=C1N[C@H]2[C@H](CS[C@H]2CCCCC(=O)*)N1

Broadly, the Kd is the equilibrium constant for the complex coming apart. The low end stands for tighter binding, the high end for weaker binding.

The chains are these.
B7: SCRIB-34/4 (MBP fusion of the tandem of the third and fourth PDZ domains of SCRIB) (domain or fragment)
chain: EGPYPVEEIRLPRAGGPLGLSIVGGSDHSSHPFGVQEPGVFISKVLPRGLAARSGLRVGDRILAVNGQDVRDATHQEAVSALLRPCLELSLLVRRDPAPPGLRELCIQKAPGERLGISIRGGARGHAGNPRDPTDEGIFISKVSPTGAAGRDGRLRVGLRLLEVNQQSLLGLTHGEAVQLLRSVGDTLTVLVCDGFE
notes: also called MBP-PDZ analyte SCRIB-34/4; tandem PDZ construct; source: E. coli BL21 DE3, purified (amylose column, Superdex 75 gel filtration)
B13: MAGI1-3/6 (MBP fusion of the third of the six PDZ domains of MAGI1) (domain or fragment)
chain: SHGYPNDTVSLASSIATQPELITVHIVKGPMGFGFTIADSPGGGGQRVKQIVDSPRCRGLKEGDLIVEVNKKNVQALTHNQVVDMLIECPKGSEVTLLVQRGGLPVPKKSPKSQPLERKDSQNSSQHSVSSHRSLHTASP
notes: source: E. coli BL21 DE3, purified (amylose column, Superdex 75 gel filtration)
B23: MAGI1-2/6 (MBP fusion of the second of the six PDZ domains of MAGI1) (domain or fragment)
chain: KPFFTRNPSELKGKFIHTKLRKSSRGFGFTVVGGDEPDEFLQIKSLVLDGPAALDGKMETGDVIVSVNDTCVLGHTHAQVVKIFQSIPIGASVDLELCRGYPLPFDPDDPNTSLVTSVAILDKEP
notes: as for B13

Assay in all cases: SPR
What all share (conditions): both partners purified

Assay [1] addresses B23.
Assay [2] concerns the target T1, SCRIB-3/4 (MBP fusion of the third of the four PDZ domains of SCRIB) (human, UniProt Q14160-1 997-1093).
T1 construct: also called MBP-PDZ analyte SCRIB-3/4; source: E. coli BL21 DE3, purified (amylose column, Superdex 75 gel filtration)
T1 sequence (looked up): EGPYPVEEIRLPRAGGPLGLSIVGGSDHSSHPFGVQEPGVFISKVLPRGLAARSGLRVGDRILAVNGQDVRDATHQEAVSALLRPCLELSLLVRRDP

Assay [3] has as its target B7.
Assay [4] addresses B23. The source holds these as a separate data set.
The target in assay [5] is B13.
Assay [6] addresses T1, SCRIB-3/4 (MBP fusion of the third of …). This is another data set of the same source.
Assay [7] concerns the target B7. The source holds these as a separate data set.
Assay [8] deals with B13. The source holds these as a separate data set.
The target in assay [9] is T1, SCRIB-3/4 (MBP fusion of the third of …). The source holds these as a separate data set.
Assay [10] addresses B7. This is another data set of the same source.
Assay [11] addresses T2, 16E6_05 (short peptide of HPV16 early protein E6: GSGAG and the last five residues) (human papilloma virus 16, biotin at N-terminus).
T2 construct: also called 16E6 short; source: synthetic peptide (JPT Peptide Technologies)

Assay [12] addresses T3, TAX1_05 (short peptide of the Trans-activating transcriptional regulatory protein of HTLV-1: GSGAG a (HTLV-1A, biotin at N-terminus)).
T3 construct: source: synthetic peptide (JPT Peptide Technologies)

In assay [13] the target is B23. The source holds these as a separate data set.
Assay [14] addresses T1, SCRIB-3/4 (MBP fusion of the third of …). The source holds these as a separate data set.
The target in assay [15] is B7. The source holds these as a separate data set.
The target of assay [16] is B13. The source holds these as a separate data set.

B1: CYSLTR2_10 (long peptide of Cysteinyl leukotriene receptor 2: the last ten residues) (peptide)
peptide: Biotin-SVWLRKETRV
notes: also called CYSLTR2 long; source: synthetic peptide (JPT Peptide Technologies)
For the molecule B1, the Kd in assay [1] turned out to be 4 µM; in assay [2], 34 µM; in [3], 15 µM.

B2: GLAST_05 (short peptide of Excitatory amino acid transporter 1: GSGAG and the last five residues) (peptide)
peptide: Biotin-GSGAGSETKM
notes: also called GLAST short; source: synthetic peptide (JPT Peptide Technologies)
On to B2, for which the dissociation constant (Kd) in assay [2] worked out at 182 µM; in assay [3] it was 179 µM.

B3: ARHGAP6_05 (short peptide of Rho GTPase-activating protein 6: GSGAG and the last five residues) (peptide)
peptide: Biotin-GSGAGPETLV
notes: also called ARHGAP6 short; source: synthetic peptide (JPT Peptide Technologies)
On to B3, for which the Kd in [4] turned out to be 2000 µM; in [5], 58 µM; in assay [6] it was 216 µM; in [7], 31 µM.

B4: TANC1_05 (short peptide of Tetratricopeptide repeat, ankyrin repeat and coiled-coil domain-containing protein 1: GSGAG and the last five residues) (peptide)
peptide: Biotin-GSGAGIESNV
notes: also called TANC1 short; source: synthetic peptide (JPT Peptide Technologies)
Take B4: the Kd was found to be 14 µM in assay [8], 498 µM in assay [9] and 9 µM in [10].

B5: GLUT7_10 (long peptide of Solute carrier family 2, facilitated glucose transporter member 7: the last ten residues) (peptide)
peptide: Biotin-TASPAKETSF
notes: also called GLUT7 long; source: synthetic peptide (JPT Peptide Technologies)
Turning to B5, the results for the Kd in assay [9] and in [10] were 45 µM and 5 µM, respectively.

B6: NET1_05 (short peptide of Neuroepithelial cell-transforming gene 1 protein: GSGAG and the last five residues) (peptide)
peptide: Biotin-GSGAGKETLV
notes: also called NET1 short; source: synthetic peptide (JPT Peptide Technologies)
Consider B6, for which the Kd turned out to be 62 µM in assay [4], 23 µM in assay [5], 308 µM in assay [6] and 15 µM in [7].

For the molecule B7, the Kd in [11] and in assay [12] was 1 µM in each case.

B8: PTEN_10 (long peptide of PTEN: the last ten residues) (peptide)
peptide: Biotin-EDQHTQITKV
notes: also called PTEN long; source: synthetic peptide (JPT Peptide Technologies)
For the molecule B8, the Kd in [8] stood at 144 µM.

B9: MARCH3_05 (short peptide of E3 ubiquitin-protein ligase MARCH3: GSGAG and the last five residues) (peptide)
peptide: Biotin-GSGAGKETVV
notes: also called MARCH3 short; source: synthetic peptide (JPT Peptide Technologies)
For B9, the Kd in assay [13] worked out at 225 µM; in [14] it was 46 µM; in [15], 7 µM.

B10: MAS_05 (short peptide of Proto-oncogene Mas: GSGAG and the last five residues) (peptide)
peptide: Biotin-GSGAGVETVV
notes: also called MAS short; source: synthetic peptide (JPT Peptide Technologies)
On to B10, for which the equilibrium dissociation constant (Kd) in assay [13] is 2740 µM; in assay [16], 90 µM; in assay [14], 158 µM; in assay [15], 16 µM.

B11: TMEM215_05 (short peptide of Transmembrane protein 215: GSGAG and the last five residues) (peptide)
peptide: Biotin-GSGAGHETIV
notes: also called TMEM215 short; source: synthetic peptide (JPT Peptide Technologies)
In the case of B11, the dissociation constant Kd was 116 µM in assay [16], 213 µM in [14] and 15 µM in assay [15].

B12: ATP1A1_05 (short peptide of Sodium/potassium-transporting ATPase subunit alpha-1: GSGAG and the last five residues) (peptide)
peptide: Biotin-GSGAGKETYY
notes: also called ATP1A1 short; source: synthetic peptide (JPT Peptide Technologies)
Regarding B12, the affinity in [2], expressed as Kd, was 1280 µM.

In assay [12], B13 showed a Kd of 75 µM.

B14: ABC1_10 (long peptide of ATP-binding cassette sub-family A member 1: the last ten residues) (peptide)
peptide: Biotin-QDEKVKESYV
notes: also called ABC1 long; source: synthetic peptide (JPT Peptide Technologies)
On to B14, for which the Kd in assay [4] was 45 µM; in assay [5], 20 µM; in assay [6], 107 µM; in [7] it was 8 µM.

B15: NET1_10 (long peptide of Neuroepithelial cell-transforming gene 1 protein: the last ten residues) (peptide)
peptide: Biotin-SGGKRKETLV
notes: also called NET1 long; source: synthetic peptide (JPT Peptide Technologies)
With B15, the Kd is 3 µM in assay [4], 37 µM in [5], 217 µM in assay [6] and 63 µM in assay [7].

B16: TMEM215_10 (long peptide of Transmembrane protein 215: the last ten residues) (peptide)
peptide: Biotin-QGRWDHETIV
notes: also called TMEM215 long; source: synthetic peptide (JPT Peptide Technologies)
For B16, the Kd in assay [16] turned out to be 67 µM; in assay [14], 128 µM; in assay [15], 9 µM.

B17: ARHGAP6_10 (long peptide of Rho GTPase-activating protein 6: the last ten residues) (peptide)
peptide: Biotin-NPDALPETLV
notes: also called ARHGAP6 long; source: synthetic peptide (JPT Peptide Technologies)
As for B17, the Kd in [4] was 18 µM; in assay [5], 41 µM; in [6] it was 541 µM; in assay [7], 28 µM.

B18: VANG2_05 (short peptide of Vang-like protein 2: GSGAG and the last five residues) (peptide)
peptide: Biotin-GSGAGSETSV
notes: also called VANG2 short; source: synthetic peptide (JPT Peptide Technologies)
Regarding B18, the Kd in assay [14] was 24 µM; in [15] it was 4 µM.

B19: DLL1_05 (short peptide of Delta-like protein 1: GSGAG and the last five residues) (peptide)
peptide: Biotin-GSGAGIATEV
notes: also called DLL1 short; source: synthetic peptide (JPT Peptide Technologies)
For B19, the values for the Kd in assay [4], in assay [5] and in assay [6] were 32 µM, 246 µM and 200 µM, respectively.

B20: FZD4_10 (long peptide of Frizzled-4: the last ten residues) (peptide)
peptide: Biotin-KPGKGSETVV
notes: also called FZD4 long; source: synthetic peptide (JPT Peptide Technologies)
On to B20, for which binding in assay [1] was put at a Kd of 23 µM.

B21: ATP1A1_10 (long peptide of Sodium/potassium-transporting ATPase subunit alpha-1: the last ten residues) (peptide)
peptide: Biotin-GGWVEKETYY
notes: also called ATP1A1 long; source: synthetic peptide (JPT Peptide Technologies)
In assay [2], B21 registered a Kd of 88 µM.

B22: PTEN_05 (short peptide of PTEN: GSGAG and the last five residues) (peptide)
peptide: Biotin-GSGAGQITKV
notes: also called PTEN short; source: synthetic peptide (JPT Peptide Technologies)
B22: the Kd in [8] worked out at 453 µM.

B23: the Kd in assay [11] is 7 µM; in assay [12], 33 µM.

B24: DLL1_10 (long peptide of Delta-like protein 1: the last ten residues) (peptide)
peptide: Biotin-KDECVIATEV
notes: also called DLL1 long; source: synthetic peptide (JPT Peptide Technologies)
Turning to B24, the Kd in [5] was found to be 238 µM; in assay [6], 172 µM.

B25: FZD4_05 (short peptide of Frizzled-4: GSGAG and the last five residues) (peptide)
peptide: Biotin-GSGAGSETVV
notes: also called FZD4 short; source: synthetic peptide (JPT Peptide Technologies)
For B25, the affinity in assay [13], expressed as Kd, was 146 µM.

B26: GLUT7_05 (short peptide of Solute carrier family 2, facilitated glucose transporter member 7: GSGAG and the last five residues) (peptide)
peptide: Biotin-GSGAGKETSF
notes: also called GLUT7 short; source: synthetic peptide (JPT Peptide Technologies)
Regarding B26, the Kd in assay [9] was determined as 56 µM; in assay [10], 5 µM.

B27: SCRIB-4/4 (MBP fusion of the fourth of the four PDZ domains of SCRIB) (domain or fragment)
chain: GLRELCIQKAPGERLGISIRGGARGHAGNPRDPTDEGIFISKVSPTGAAGRDGRLRVGLRLLEVNQQSLLGLTHGEAVQLLRSVGDTLTVLVCDGFE
notes: also called MBP-PDZ analyte SCRIB-4/4; source: E. coli BL21 DE3, purified (amylose column, Superdex 75 gel filtration)
Molecule B27 returned a Kd in [12] of 50 µM.

B28: MARCH3_10 (long peptide of E3 ubiquitin-protein ligase MARCH3: the last ten residues) (peptide)
peptide: Biotin-VKRNSKETVV
notes: also called MARCH3 long; source: synthetic peptide (JPT Peptide Technologies)
As for B28, the Kd worked out at 103 µM in assay [13], 686 µM in [16], 100 µM in [14] and 16 µM in [15].

B29: VANG2_10 (long peptide of Vang-like protein 2: the last ten residues) (peptide)
peptide: Biotin-VMRLQSETSV
notes: also called VANG2 long; source: synthetic peptide (JPT Peptide Technologies)
For B29, the figures for the Kd in [14] and in [15] were 12 µM and 5 µM, respectively.

B30: ADAM17_10 (long peptide of Disintegrin and metalloproteinase domain-containing protein 17: the last ten residues) (peptide)
peptide: Biotin-NRVDSKETEC
notes: also called ADAM17 long; source: synthetic peptide (JPT Peptide Technologies)
With B30, the Kd in assay [14] came to 97 µM; in assay [2], 79 µM; in assay [3], 8 µM.

B31: ABC1_05 (short peptide of ATP-binding cassette sub-family A member 1: GSGAG and the last five residues) (peptide)
peptide: Biotin-GSGAGKESYV
notes: also called ABC1 short; source: synthetic peptide (JPT Peptide Technologies)
Turning to B31, the equilibrium dissociation constant (Kd) in [4] turned out to be 91 µM; in [5], 26 µM; in [6] it was 229 µM; in assay [7], 10 µM.
